Data published in the supplement of paper PMC10567573.

B1: CDS2 (parent)
chain: IHSIALSTFASLIGPFGGFFASGF
B2: MLL5 (parent)
chain: EQIAERKRKMVSWEASSLGLVTAA
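Note: lentivirally expressed fusions sorted by FACS into six bins by GFP to DsRed ratio, PSI derived from sequencing read proportions per bin multiplied by bin number.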

Variants of: B1
Experiment: protein stability index of a GFP-peptide fusion (GPS, HEK-293T) (PSI 1-6); higher = more stable
Conditions: c terminus: a fixed tail appended
With S7R the protein stability index was 3.4. In the case of I4A, the protein stability index is reported as 2.44. Work on T8A yielded a protein stability index of 3.48. For A5F, the protein stability index was 3.17. With A5H the protein stability index was 2.81. A5Y gave a protein stability index of 2.88. F20I gave a protein stability index of 2.13. With F9G the protein stability index was 2.44. For F9Y, the protein stability index was 1.62. G23Y gave a protein stability index of 2.63. In the case of G23D, the protein stability index is reported as 2.37. F16G gave a protein stability index of 4.52. F16W showed a protein stability index of 2.49. S22E gave a protein stability index of 2.95. With H2E the protein stability index was 1.8. In the case of S3C, the protein stability index is reported as 4.47. Work on S3N yielded a protein stability index of 4.17. S3P gave a protein stability index of 2.89. Variant G17D has a protein stability index of 3.88. In the case of G17F, the protein stability index is reported as 2.74. L12S showed a protein stability index of 3.23. Work on L12K yielded a protein stability index of 3.15. Work on A21T yielded a protein stability index of 3.65. A21Y showed a protein stability index of 3.42. G18A gave a protein stability index of 2.37. G18L gave a protein stability index of 2.48. G18W showed a protein stability index of 2.32. P15W gave a protein stability index of 2.2. S11M showed a protein stability index of 3.71. Variant F24P has a protein stability index of 3.79. F24G showed a protein stability index of 4.4. F19D showed a protein stability index of 3.49. Work on F19Y yielded a protein stability index of 4.14.

Variants of: B2
Experiment: as above
Conditions: c terminus: a fixed tail appended
In the case of E5V, the protein stability index is reported as 2.44. E5K gave a protein stability index of 3.08. In the case of E5G, the protein stability index is reported as 2.95. Work on E5H yielded a protein stability index of 2.12. E5D showed a protein stability index of 3.49. For E5I, the protein stability index was 2.33. Variant E5F has a protein stability index of 2.68. For E5Q, the protein stability index was 2.79. E5W showed a protein stability index of 1.8. E5N gave a protein stability index of 2.07. For E5S, the protein stability index was 2.13. Work on E5P yielded a protein stability index of 3.01. With E5C the protein stability index was 1.87. Variant E5A has a protein stability index of 2.25. In the case of R8L, the protein stability index is reported as 2.79. For R8W, the protein stability index was 2.72. With R8A the protein stability index was 3.81. R8T gave a protein stability index of 3.89. Variant R8C has a protein stability index of 2.76. R8D showed a protein stability index of 2.85. With R8E the protein stability index was 3.98. R8I showed a protein stability index of 2.66. With R8Y the protein stability index was 2.86. In the case of R8S, the protein stability index is reported as 2.97. Variant R8N has a protein stability index of 2.82. With R8F the protein stability index was 2.01. Variant R8P has a protein stability index of 3.25. R8M showed a protein stability index of 3.17. R8H gave a protein stability index of 3.64. Work on R8K yielded a protein stability index of 3.56. With R8V the protein stability index was 2.65. I3F showed a protein stability index of 2.72. Work on I3G yielded a protein stability index of 3.29. Variant I3D has a protein stability index of 4.19. I3V gave a protein stability index of 3.63. Work on I3C yielded a protein stability index of 2.46. Variant I3E has a protein stability index of 2.29. I3L showed a protein stability index of 3.07. In the case of I3S, the protein stability index is reported as 3.05. I3Q showed a protein stability index of 3.09. Variant I3A has a protein stability index of 3.18. For I3N, the protein stability index was 3.64. I3R showed a protein stability index of 2.76. In the case of I3P, the protein stability index is reported as 3.56. Variant I3H has a protein stability index of 3.7. With I3T the protein stability index was 3.88. Variant I3Y has a protein stability index of 3.14. For I3K, the protein stability index was 3.1. Work on A4Y yielded a protein stability index of 2.8. In the case of A4L, the protein stability index is reported as 2.95. Variant A4K has a protein stability index of 3.36. Work on A4D yielded a protein stability index of 3.67. In the case of A4S, the protein stability index is reported as 3.34. For A4P, the protein stability index was 3.85. A4Q gave a protein stability index of 2.34. Work on A4H yielded a protein stability index of 3.39. Work on A4R yielded a protein stability index of 3.59. Variant A4I has a protein stability index of 2.38. For A4V, the protein stability index was 2.56. With K9R the protein stability index was 3.06. K9F showed a protein stability index of 2.06. In the case of K9Q, the protein stability index is reported as 2.59. Variant K9T has a protein stability index of 2.31. For K9M, the protein stability index was 2.38. K9H gave a protein stability index of 1.76. K9G showed a protein stability index of 3.73. Variant K9C has a protein stability index of 1.53. K9Y showed a protein stability index of 2.97. Work on K9N yielded a protein stability index of 3.84. Work on K9V yielded a protein stability index of 2.46. K9A gave a protein stability index of 2.52. With K9I the protein stability index was 2.34. In the case of K9W, the protein stability index is reported as 1.88. K9L gave a protein stability index of 2.27. For K9E, the protein stability index was 3.52. Work on K9S yielded a protein stability index of 3.51. Work on Q2M yielded a protein stability index of 2.21. Variant Q2V has a protein stability index of 2.79. With Q2D the protein stability index was 3.66. Work on Q2N yielded a protein stability index of 2.37. Q2K gave a protein stability index of 3.05. For Q2T, the protein stability index was 3.25. Work on Q2F yielded a protein stability index of 2.58. Q2C showed a protein stability index of 1.97. In the case of Q2P, the protein stability index is reported as 2.84. Q2H showed a protein stability index of 2.68. Q2S showed a protein stability index of 2.55. With Q2A the protein stability index was 2.75. Work on M10A yielded a protein stability index of 3.83. R6F showed a protein stability index of 2.67. With R6A the protein stability index was 4.14. In the case of R6N, the protein stability index is reported as 3. Work on R6E yielded a protein stability index of 3.56. For R6D, the protein stability index was 3.98. Variant R6Q has a protein stability index of 2.76. With R6L the protein stability index was 2.65. In the case of R6H, the protein stability index is reported as 2.98. Work on R6M yielded a protein stability index of 2.88. For R6W, the protein stability index was 2.09. In the case of R6I, the protein stability index is reported as 1.65. With R6T the protein stability index was 3.54. R6Y showed a protein stability index of 2.78. For R6K, the protein stability index was 3.18. Variant R6G has a protein stability index of 3.38. Variant R6C has a protein stability index of 3.24. E1I gave a protein stability index of 2.78. Variant E1T has a protein stability index of 2.67. E1Q gave a protein stability index of 3.2. With E1V the protein stability index was 2.55. For E1D, the protein stability index was 3.35. In the case of E1R, the protein stability index is reported as 2.77. Work on E1M yielded a protein stability index of 2.41. E1N gave a protein stability index of 3.06. In the case of E1C, the protein stability index is reported as 1.44. With E1G the protein stability index was 3.27. Variant E1W has a protein stability index of 1.69. E1F showed a protein stability index of 1.42. Work on E1K yielded a protein stability index of 4. In the case of E1L, the protein stability index is reported as 2.53. For E1A, the protein stability index was 2.18. For E1P, the protein stability index was 3.16. E1Y gave a protein stability index of 2.41. K7I gave a protein stability index of 2.98. In the case of K7V, the protein stability index is reported as 3.02. With K7M the protein stability index was 1.7. For K7Y, the protein stability index was 2.29. Variant K7T has a protein stability index of 2.69. Variant K7C has a protein stability index of 2.19. K7Q gave a protein stability index of 3.21. In the case of K7L, the protein stability index is reported as 1.97. Variant K7G has a protein stability index of 2.93. Work on K7E yielded a protein stability index of 4.03. K7F gave a protein stability index of 2.74. Variant K7H has a protein stability index of 3.36.
